Data: patent publication US20110190200A1 (INDIANA UNIVERSITY RESEARCH AND TECHNOLOGY, published 2011)
Where two headings read alike, the source gives them in different places. Numbered stars: 1 amine (or outer) side, 2 acyl side, 3 side chain; on linkers, the order of the positions; unused ones are H or OH. Square brackets hold non-standard residues; d marks the D form. Side chains are listed from the residue outwards. Ends that are not written are not given here. * marks the point of attachment. γGlu = O=C(O)[C@H](CCC(=O)[*:2])N[*:1]; Palmitoyl = CCCCCCCCCCCCCCCC(=O)*; Met(O) = CS(=O)CC[C@H](N)C(=O)O; Myristoyl = CCCCCCCCCCCCCC(=O)*; Nle = CCCC[C@H](N)C(=O)O; Orn = NCCC[C@H](N)C(=O)O; Dab = NCC[C@H](N)C(=O)O; Dap = NC[C@H](N)C(=O)O; Aib = CC(C)(N)C(=O)O; Carbamoyl = NC(=O)*; Ahx = NCCCCCC(=O)O; βAla = NCCC(=O)O; Acm = CC(=O)NC*

Columns and labels:
Test in all cases: cell-based or functional assay
GLP-1 receptor [1] = target: T1, GLP-1 receptor (UniProt P43220 24-463, limits assumed)
Target sequence in this assay (P43220 24-463 limits assumed): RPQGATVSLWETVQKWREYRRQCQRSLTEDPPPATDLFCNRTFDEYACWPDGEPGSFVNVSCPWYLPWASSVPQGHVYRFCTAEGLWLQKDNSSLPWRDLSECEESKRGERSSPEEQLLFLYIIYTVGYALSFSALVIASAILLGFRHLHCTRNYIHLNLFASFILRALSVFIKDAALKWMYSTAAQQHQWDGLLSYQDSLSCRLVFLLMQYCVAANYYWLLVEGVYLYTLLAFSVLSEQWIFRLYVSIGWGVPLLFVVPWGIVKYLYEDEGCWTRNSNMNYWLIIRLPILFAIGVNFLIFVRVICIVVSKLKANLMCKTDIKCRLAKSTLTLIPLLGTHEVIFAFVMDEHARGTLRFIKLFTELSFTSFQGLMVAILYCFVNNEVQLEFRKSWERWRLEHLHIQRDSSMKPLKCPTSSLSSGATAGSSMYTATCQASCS

GLP-1 receptor [2] = target: T1, GLP-1 receptor; remark: listed apart in the source
glucagon receptor [3] = target: T2, glucagon receptor (human, UniProt P47871 26-477)
T2 sequence (P47871 26-477): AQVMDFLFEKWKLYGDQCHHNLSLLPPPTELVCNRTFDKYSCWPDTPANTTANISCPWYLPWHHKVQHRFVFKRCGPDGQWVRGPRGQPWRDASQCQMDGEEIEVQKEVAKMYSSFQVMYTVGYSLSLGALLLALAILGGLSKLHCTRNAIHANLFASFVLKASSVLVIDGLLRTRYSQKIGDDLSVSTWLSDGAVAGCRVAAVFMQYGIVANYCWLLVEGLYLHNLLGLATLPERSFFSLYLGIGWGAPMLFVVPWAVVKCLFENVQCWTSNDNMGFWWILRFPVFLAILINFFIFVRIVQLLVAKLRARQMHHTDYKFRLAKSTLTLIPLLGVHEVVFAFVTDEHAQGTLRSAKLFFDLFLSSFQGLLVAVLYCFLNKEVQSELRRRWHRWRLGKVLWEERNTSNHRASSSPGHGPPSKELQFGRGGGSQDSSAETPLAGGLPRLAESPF

glucagon receptor [4] = target: T2, glucagon receptor; remark: listed apart in the source
glucagon receptor [5] = target: T2, glucagon receptor; remark: listed apart in the source
glucagon receptor [6] = target: T2, glucagon receptor; remark: listed apart in the source

Binder | EC50 at GLP-1 Receptor (GLP-1 receptor [2]) [nM] | % activity* (glucagon receptor [3]) [%] | EC50 at Glucagon Receptor (glucagon receptor [5]) [nM] | also measured
H[Aib]QGTFTSDK(C18 fatty acyl)SKYLDEQAAKEFIC(PEG 40 kDa)WLMNT-NH2 [Peptide Chimera 2-AIB2-K10-acylated] |  |  |  | EC50 at the GLP-1 receptor (GLP-1 receptor [1]): 0.007 nM
HXQGTFTSDYSKYLDEQAAKEFICWLMNTK (AIB at position 2; Lys at position 30 acylated with a C18 fatty acyl group; Cys at position 24 comprises a 40 kDa PEG molecule; C-terminal amide) [Peptide Chimera 2-AIB2-K30-acylated] |  |  |  | EC50 at the GLP-1 receptor (GLP-1 receptor [1]): 0.465 nM
H[Aib]QGTFTSDK([βAla-βAla-Palmitoyl])SKYLD[Aib]RRAQDFVQWLMNT-NH2 (N-terminus assumed; SMILES CCCCCCCCCCCCCCCC(=O)NCCC(=O)NCCC(=O)NCCCC[C@H](NC(=O)[C@H](CC(=O)O)NC(=O)[C@H](CO)NC(=O)[C@@H](NC(=O)[C@H](Cc1ccccc1)NC(=O)[C@@H](NC(=O)CNC(=O)[C@H](CCC(N)=O)NC(=O)C(C)(C)NC(=O)[C@@H](N)Cc1c[nH]cn1)[C@@H](C)O)[C@@H](C)O)C(=O)N[C@@H](CO)C(=O)N[C@@H](CCCCN)C(=O)N[C@@H](Cc1ccc(O)cc1)C(=O)N[C@@H](CC(C)C)C(=O)N[C@@H](CC(=O)O)C(=O)NC(C)(C)C(=O)N[C@@H](CCCNC(=N)N)C(=O)N[C@@H](CCCNC(=N)N)C(=O)N[C@@H](C)C(=O)N[C@@H](CCC(N)=O)C(=O)N[C@@H](CC(=O)O)C(=O)N[C@@H](Cc1ccccc1)C(=O)N[C@H](C(=O)N[C@@H](CCC(N)=O)C(=O)N[C@@H](Cc1c[nH]c2ccccc12)C(=O)N[C@@H](CC(C)C)C(=O)N[C@@H](CCSC)C(=O)N[C@@H](CC(N)=O)C(=O)N[C@H](C(N)=O)[C@@H](C)O)C(C)C) [Peptide 84 (Table 10)] | 0.004 |  |  | 
HS[Dab](Ac)GTFTSDYSKYLD[Aib]RRAADFVAWLMDE [Peptide K backbone, Dab(Ac) at position 3] |  | 86 |  | EC50 at Glucagon Receptor (glucagon receptor [3]): 0.07 nM
HS[Dab](Ac)GTFTSDYSKYLD[Aib]RRASDFVSWLLDE [HSDab(Ac)…ibRRASDFVSWLLDE] |  |  |  | % activity* (glucagon receptor [4]): 54%; EC50 (nM) at Glucagon Receptor (glucagon receptor [4]): 0.048 nM
H[Aib]QGTFTSDK([Ala-Ala-Myristoyl])SKYLD[Aib]RRAQDFVC(PEG 40 kDa)WLMNT-NH2 [Peptide 81* (Table 10)] | 0.271 |  | 0.597 | 
H[Aib]QGTFTSDK([γGlu-γGlu-Palmitoyl])SKYLD[Aib]RRAQDFVC(PEG 40 kDa)WLMNT-NH2 [Peptide 80* (Table 10)] | 0.042 |  | 0.108 | 
HS[Dab](Ac)GTFTSDYSKYLD[Aib]RRATDFVTWLLDE [HSDab(Ac)…ibRRATDFVTWLLDE] |  |  |  | % activity* (glucagon receptor [4]): 46%; EC50 (nM) at Glucagon Receptor (glucagon receptor [4]): 0.057 nM
HS[Dap](Carbamoyl)GTFTSDYSKYLDTRRAAEFVAWL[Nle]DE [Peptide J backbone, Dap(urea) at position 3] |  | 13 |  | EC50 at Glucagon Receptor (glucagon receptor [3]): 0.48 nM
HSQGTFTSDYSKYLDTRRAAEFVAWL[Nle]DE [Peptide J backbone, Q at position 3] |  | 25 |  | 
H[Aib]QGTFTSDK([Ahx-Palmitoyl])SKYLD[Aib]RRAQDFVQWLMNT-NH2 (N-terminus assumed; SMILES CCCCCCCCCCCCCCCC(=O)NCCCCCC(=O)NCCCC[C@H](NC(=O)[C@H](CC(=O)O)NC(=O)[C@H](CO)NC(=O)[C@@H](NC(=O)[C@H](Cc1ccccc1)NC(=O)[C@@H](NC(=O)CNC(=O)[C@H](CCC(N)=O)NC(=O)C(C)(C)NC(=O)[C@@H](N)Cc1c[nH]cn1)[C@@H](C)O)[C@@H](C)O)C(=O)N[C@@H](CO)C(=O)N[C@@H](CCCCN)C(=O)N[C@@H](Cc1ccc(O)cc1)C(=O)N[C@@H](CC(C)C)C(=O)N[C@@H](CC(=O)O)C(=O)NC(C)(C)C(=O)N[C@@H](CCCNC(=N)N)C(=O)N[C@@H](CCCNC(=N)N)C(=O)N[C@@H](C)C(=O)N[C@@H](CCC(N)=O)C(=O)N[C@@H](CC(=O)O)C(=O)N[C@@H](Cc1ccccc1)C(=O)N[C@H](C(=O)N[C@@H](CCC(N)=O)C(=O)N[C@@H](Cc1c[nH]c2ccccc12)C(=O)N[C@@H](CC(C)C)C(=O)N[C@@H](CCSC)C(=O)N[C@@H](CC(N)=O)C(=O)N[C@H](C(N)=O)[C@@H](C)O)C(C)C) [Peptide 85 (Table 10)] | 0.005 |  | 0.01 | 
H[Aib]QGTFTSDK([Pro-Pro-Palmitoyl])SKYLD[Aib]RRAQDFVQWLMNT-NH2 [Peptide 87 (Table 10)] | 0.009 |  | 0.017 | 
HS[Dab](Ac)GTFTSDYSKYLD[Aib]RRAADFVAWLLDTGPSSGAPPPS-NH2 (N-terminus assumed; SMILES CC(=O)NCC[C@H](NC(=O)[C@H](CO)NC(=O)[C@@H](N)Cc1c[nH]cn1)C(=O)NCC(=O)N[C@H](C(=O)N[C@@H](Cc1ccccc1)C(=O)N[C@H](C(=O)N[C@@H](CO)C(=O)N[C@@H](CC(=O)O)C(=O)N[C@@H](Cc1ccc(O)cc1)C(=O)N[C@@H](CO)C(=O)N[C@@H](CCCCN)C(=O)N[C@@H](Cc1ccc(O)cc1)C(=O)N[C@@H](CC(C)C)C(=O)N[C@@H](CC(=O)O)C(=O)NC(C)(C)C(=O)N[C@@H](CCCNC(=N)N)C(=O)N[C@@H](CCCNC(=N)N)C(=O)N[C@@H](C)C(=O)N[C@@H](C)C(=O)N[C@@H](CC(=O)O)C(=O)N[C@@H](Cc1ccccc1)C(=O)N[C@H](C(=O)N[C@@H](C)C(=O)N[C@@H](Cc1c[nH]c2ccccc12)C(=O)N[C@@H](CC(C)C)C(=O)N[C@@H](CC(C)C)C(=O)N[C@@H](CC(=O)O)C(=O)N[C@H](C(=O)NCC(=O)N1CCC[C@H]1C(=O)N[C@@H](CO)C(=O)N[C@@H](CO)C(=O)NCC(=O)N[C@@H](C)C(=O)N1CCC[C@H]1C(=O)N1CCC[C@H]1C(=O)N1CCC[C@H]1C(=O)N[C@@H](CO)C(N)=O)[C@@H](C)O)C(C)C)[C@@H](C)O)[C@@H](C)O) [HSDab(Ac)…ibRRAADFVAWLLDTGPSSGAPPPS amide] |  |  |  | % activity* (glucagon receptor [4]): 113%; EC50 (nM) at Glucagon Receptor (glucagon receptor [4]): 0.023 nM
HS[Dab](Ac)GTFTSDYSKYLDTRRAAEFVAWL[Nle]DE [Peptide J backbone, Dab(Ac) at position 3] |  | 19 |  | EC50 at Glucagon Receptor (glucagon receptor [3]): 0.31 nM
H[Aib]QGTFTSDK([Leu-Leu-Palmitoyl])SKYLD[Aib]RRAQDFVQWLMNT-NH2 (N-terminus assumed; SMILES CCCCCCCCCCCCCCCC(=O)N[C@@H](CC(C)C)C(=O)N[C@@H](CC(C)C)C(=O)NCCCC[C@H](NC(=O)[C@H](CC(=O)O)NC(=O)[C@H](CO)NC(=O)[C@@H](NC(=O)[C@H](Cc1ccccc1)NC(=O)[C@@H](NC(=O)CNC(=O)[C@H](CCC(N)=O)NC(=O)C(C)(C)NC(=O)[C@@H](N)Cc1c[nH]cn1)[C@@H](C)O)[C@@H](C)O)C(=O)N[C@@H](CO)C(=O)N[C@@H](CCCCN)C(=O)N[C@@H](Cc1ccc(O)cc1)C(=O)N[C@@H](CC(C)C)C(=O)N[C@@H](CC(=O)O)C(=O)NC(C)(C)C(=O)N[C@@H](CCCNC(=N)N)C(=O)N[C@@H](CCCNC(=N)N)C(=O)N[C@@H](C)C(=O)N[C@@H](CCC(N)=O)C(=O)N[C@@H](CC(=O)O)C(=O)N[C@@H](Cc1ccccc1)C(=O)N[C@H](C(=O)N[C@@H](CCC(N)=O)C(=O)N[C@@H](Cc1c[nH]c2ccccc12)C(=O)N[C@@H](CC(C)C)C(=O)N[C@@H](CCSC)C(=O)N[C@@H](CC(N)=O)C(=O)N[C@H](C(N)=O)[C@@H](C)O)C(C)C) [Peptide 86 (Table 10)] | 0.006 |  |  | 
HSC(Acm)GTFTSDYSKYLDTRRAAEFVAWL[Nle]DE [Peptide J backbone, C(Acm) at position 3] |  | 33 |  | 
HS[Met(O)]GTFTSDYSKYLDTRRAAEFVAWL[Nle]DE [Peptide J backbone, M(O) at position 3] |  | 7 |  | EC50 at Glucagon Receptor (glucagon receptor [3]): 0.91 nM
HSQGTFTSDYSKYLDSRRAQDFVQWLMNKK [glucagon analog K29, K30] |  |  |  | Observed EC50s (nM) in Cells Overexpressing the Glucagon Receptor, Test 1 (glucagon receptor [6]): 0.89 nM
H[Aib]QGTFTSDK([γGlu-γGlu-Palmitoyl])SKYLD[Aib]RRAQDFVQWLMNT-NH2 [Peptide 83 (Table 10)] | 0.043 |  |  | 
H[Aib]QGTFTSDK(Palmitoyl)SKYLD[Aib]RRAQDFVQWLMNT-NH2 [Peptide 50 (Table 10)] |  |  | 0.572 | 
H[Aib]QGTFTSDK(Myristoyl)SKYLD[Aib]RRAQDFVC(PEG 40 kDa)WLMNT-NH2 [Peptide 77* (Table 10)] | 1.46 |  | 21.9 | 
H[Aib]QGTFTSDK([Ala-Ala-Palmitoyl])SKYLD[Aib]RRAQDFVQWLMNT-NH2 [Peptide 82 (Table 10)] | 0.108 |  | 0.024 | 
HS[Orn](Ac)GTFTSDYSKYLDTRRAAEFVAWL[Nle]DE [Peptide J backbone, Orn(Ac) at position 3] |  | 7 |  | EC50 at Glucagon Receptor (glucagon receptor [3]): 0.92 nM
HSQGTFTSDYSKYLD[Aib]RRAADFVAWLMDE [Peptide K backbone, Q at position 3] |  | 15 |  | 
H[Aib]QGTFTSDK([Ala-Ala-Palmitoyl])SKYLD[Aib]RRAQDFVC(PEG 40 kDa)WLMNT-NH2 [Peptide 79* (Table 10)] | 0.055 |  | 0.102 | 
H[Aib]QGTFTSDK([γGlu-γGlu-Myristoyl])SKYLD[Aib]RRAQDFVC(PEG 40 kDa)WLMNT-NH2 [Peptide 78* (Table 10)] | 0.103 |  | 0.319 | 
